System: T1, CC1=CC(=O)CC(C)(C)[C@@]1(O)/C=C/C(C)=C\C(=O)O[C@@H]1O[C@H](CO)[C@@H](O)[C@H](O)[C@H]1O
T1 construct: recombinant from E. coli, IMAC purified; N-terminal thioredoxin and His6 tags cut off with enterokinase
Experiment: glucose release by peroxidase/glucose oxidase assay, Michaelis-Menten fit
Assay type: biochemical, Oryza sativa
Conditions: 50 mM sodium acetate pH 5, 30 °C
From the text: glucose release by peroxidase/glucose oxidase assay, Michaelis-Menten fit on Os4BGlu13

Chain of Os4BGlu13 (Oryza sativa Japonica Group) (chain, as listed by the source): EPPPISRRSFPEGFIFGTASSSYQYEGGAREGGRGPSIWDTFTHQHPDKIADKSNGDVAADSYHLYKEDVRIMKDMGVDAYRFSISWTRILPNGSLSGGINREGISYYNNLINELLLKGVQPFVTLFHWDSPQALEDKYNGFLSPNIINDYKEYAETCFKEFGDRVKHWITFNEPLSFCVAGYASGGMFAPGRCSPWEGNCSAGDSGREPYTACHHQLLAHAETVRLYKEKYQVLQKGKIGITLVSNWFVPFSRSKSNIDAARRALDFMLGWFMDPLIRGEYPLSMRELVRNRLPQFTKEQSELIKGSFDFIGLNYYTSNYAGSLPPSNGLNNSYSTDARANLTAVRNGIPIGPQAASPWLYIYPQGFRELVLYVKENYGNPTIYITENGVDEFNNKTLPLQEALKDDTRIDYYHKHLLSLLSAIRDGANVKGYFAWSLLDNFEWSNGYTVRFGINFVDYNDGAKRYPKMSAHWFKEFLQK

Substance: Os4BGlu13 (Oryza sativa Japonica Group)
- Km: 1660 ± 90 µM
- kcat: 20.6 ± 0.5 s⁻¹
- kcat/Km: 12400 M⁻¹ s⁻¹

From publication PMC8303963, “Action of Multiple Rice β-Glucosidases on Abscisic Acid Glucose Ester” (International Journal of Molecular Sciences, 2021)
